The values that follow come from paper PMC10847457 (Cell Discovery, 2024).

B1: PW5-535 (antibody, V domains shown)
VH: EVRLVESGGGLVQPGGSLRLSCAASGFTFRNYDIHWVRQTTGKGLEWVSAVGTSGDTYYLDSVKGRFTISREDAKKSVYLQMNSLRAGDTAMYYCVRGDASPDNIYYYMDVWGTGTRVIVSS
VL: DIQVTQSPSPLSASVGDRVTITCRASQTIGKYLNWYHQIPGKAPKLLISAASTLHSGVPSRFSGRGSGTDFTLTISSLQPEDFGTYYCQQSYSSPPWTFGQGTKVEIK
B2: PW5-5 (antibody, V domains shown)
VH: QVQLVQSGAEVKKPGASVKVSCKTSGYTFTDHYMYWVRQAPGQGLEWMGVINPDAGSVTYAQKFQGRVTMTSDTSTSTVYMELSSLRSEDTAVYYCARDLFFIPAANSFDYWGQGTLVTVSS
VL: EIVLTQSPATLSLSPGERATLSCRASQSVSSYLAWYQQKPGQAPRLLIYDATNRATGIPARFSGSGSGTDFTLTISSLEPEDFAVYYCQHRSNWPRMFTFGQGTKLEIK
notes: also called PW5-5 IgG; IgG PW5-5
B3: PW5-570 (antibody, V domains shown)
VH: QMQLVQSGPEVRKPGTSVKVSCRASVFSFDTSAVQWVRQARGQPLEWIGWIVFGSSNTDYAQKFRDRVTITGDMSTGTAYMELSSLRSEDTAVYYCAAPHCNRTNCHDGFDIWGQGTVVTVSS
VL: EIVLTQSPGTLSLSPGERATLSCRASQSVRSGYLGWYQQKPGQAPRLLIYGAYNRATGIPDRFRGSGSGTDFTLTISRLEPEDFVVYYCQQYDRSPWTFGQGTKVEIK
notes: also called PW5-570 IgG; PW5-570 immunoglobulin G

The assay deals with SARS-CoV-2 S trimer (stabilized soluble S2P) (SARS-CoV-2, ancestral (WT, Wuhan-Hu-1 …, UniProt P0DTC2, stabilised)). The assay can be described thus: ELISA. Conditions: both partners purified. In general terms: An ELISA detects its analyte on a solid surface through an enzyme-linked reagent.
As to B1, the binding result is given as “binds”.
The entry for B2 is “binds”; for B3 it is “binds”.
